Results from patent US20230279064A1.

Target: human collagen (Sigma cat. no. C5483) (human)
Test: ELISA on immobilised human collagen (FIG. 9)

human collagen (Sigma cat. no. C5483) (human), sequence (P02452 162-1218, chain 1 of 2): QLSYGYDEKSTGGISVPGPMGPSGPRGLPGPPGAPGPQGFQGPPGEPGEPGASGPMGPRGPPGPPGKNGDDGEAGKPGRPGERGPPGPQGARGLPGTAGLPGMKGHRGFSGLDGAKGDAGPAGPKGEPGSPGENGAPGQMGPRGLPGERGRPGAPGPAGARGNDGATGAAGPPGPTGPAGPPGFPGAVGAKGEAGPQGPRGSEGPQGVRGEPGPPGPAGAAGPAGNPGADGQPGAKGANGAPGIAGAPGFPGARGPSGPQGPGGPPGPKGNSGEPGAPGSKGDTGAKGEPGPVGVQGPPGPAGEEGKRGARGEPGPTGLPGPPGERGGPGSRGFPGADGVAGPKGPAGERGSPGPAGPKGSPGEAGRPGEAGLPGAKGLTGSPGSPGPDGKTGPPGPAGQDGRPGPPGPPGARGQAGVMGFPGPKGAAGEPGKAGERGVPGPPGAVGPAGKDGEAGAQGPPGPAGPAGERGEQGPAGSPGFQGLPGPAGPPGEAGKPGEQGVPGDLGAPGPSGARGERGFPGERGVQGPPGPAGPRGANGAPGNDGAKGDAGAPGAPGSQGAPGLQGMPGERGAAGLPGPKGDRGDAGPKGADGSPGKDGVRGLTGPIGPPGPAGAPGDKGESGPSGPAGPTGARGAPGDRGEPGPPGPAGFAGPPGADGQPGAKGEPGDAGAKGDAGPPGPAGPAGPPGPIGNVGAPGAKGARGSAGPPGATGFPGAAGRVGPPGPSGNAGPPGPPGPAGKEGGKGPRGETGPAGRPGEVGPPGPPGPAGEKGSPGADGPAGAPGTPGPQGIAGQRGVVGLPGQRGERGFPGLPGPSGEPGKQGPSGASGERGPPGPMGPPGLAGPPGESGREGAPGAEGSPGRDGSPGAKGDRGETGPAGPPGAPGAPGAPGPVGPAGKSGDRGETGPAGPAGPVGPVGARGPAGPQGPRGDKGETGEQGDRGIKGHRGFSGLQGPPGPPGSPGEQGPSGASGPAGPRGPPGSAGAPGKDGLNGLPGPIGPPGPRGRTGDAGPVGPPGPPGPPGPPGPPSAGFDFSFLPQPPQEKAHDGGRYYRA
human collagen (Sigma cat. no. C5483) (human), sequence (P08123 80-1119, chain 2 of 2, further chain): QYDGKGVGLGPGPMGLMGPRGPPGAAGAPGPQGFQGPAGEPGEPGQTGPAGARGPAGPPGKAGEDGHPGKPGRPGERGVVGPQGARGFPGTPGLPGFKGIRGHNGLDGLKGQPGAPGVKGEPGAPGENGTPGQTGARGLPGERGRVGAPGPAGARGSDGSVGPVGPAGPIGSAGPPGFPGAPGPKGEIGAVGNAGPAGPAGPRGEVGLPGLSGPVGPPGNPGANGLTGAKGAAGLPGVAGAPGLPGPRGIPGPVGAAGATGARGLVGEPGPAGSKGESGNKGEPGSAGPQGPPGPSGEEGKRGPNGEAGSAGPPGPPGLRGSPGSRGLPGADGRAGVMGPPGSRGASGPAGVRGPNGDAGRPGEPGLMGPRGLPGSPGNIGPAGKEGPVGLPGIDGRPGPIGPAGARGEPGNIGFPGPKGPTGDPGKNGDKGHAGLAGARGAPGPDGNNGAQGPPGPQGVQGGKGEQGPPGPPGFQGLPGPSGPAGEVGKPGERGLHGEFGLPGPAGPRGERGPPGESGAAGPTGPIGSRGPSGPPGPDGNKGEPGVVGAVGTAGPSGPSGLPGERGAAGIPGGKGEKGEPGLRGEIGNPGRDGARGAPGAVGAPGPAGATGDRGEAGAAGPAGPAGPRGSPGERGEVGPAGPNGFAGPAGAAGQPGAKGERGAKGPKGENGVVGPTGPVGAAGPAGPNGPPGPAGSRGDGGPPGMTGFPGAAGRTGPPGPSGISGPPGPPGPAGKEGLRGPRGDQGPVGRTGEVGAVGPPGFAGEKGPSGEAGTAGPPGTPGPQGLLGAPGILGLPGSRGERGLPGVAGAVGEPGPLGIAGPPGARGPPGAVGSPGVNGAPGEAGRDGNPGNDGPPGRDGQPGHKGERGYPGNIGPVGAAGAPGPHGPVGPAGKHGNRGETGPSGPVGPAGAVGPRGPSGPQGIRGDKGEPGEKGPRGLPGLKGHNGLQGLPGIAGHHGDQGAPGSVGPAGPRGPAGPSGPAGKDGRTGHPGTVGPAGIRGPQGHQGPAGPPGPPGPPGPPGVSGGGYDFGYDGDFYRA

GAIM scaffold variant with the Q128H mutation (Fc fusion)
fold increase in non-specific binding to collagen: 1.4 fold
